Reference: PMC6457909 (Science (New York, N.Y.), 2019)

Biological target: H5N1 A/Vietnam/1203/2004 hemagglutinin, trypsin-cleaved (HA1/HA2), as crystallised with JNJ4796 (influenza A virus H5N1 A/Vietnam/1203/2004) (UniProt Q5EP31)
Assay: crystal structure

## H5N1 A/Vietnam/1203/2004 hemagglutinin, trypsin-cleaved (HA1/HA2), as crystallised with JNJ4796 (from UniProt Q5EP31 1-568; Q5EP31 1-568) (natural protein)
  stoichiometry N: 3
